In the domain aggregation screens of Martell et al. (2025):

Assay: soluble fraction after stress (log2 fold change); higher = more stays soluble; pooled small domains, quantitative proteomics
Conditions: stress: 75 degC
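Note: 20 min heating vs room temperature control held 20 min.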

| Sequence | soluble fraction (log2) |
| --- | --- |
| HMELPSDEHLDDISHLARIGHKKGLQEKIIQLEQQGLASAEFIQQLKTLTNNFQFEKIIQWVDSEL | -0.055 |
| HMELRIREILESKDIKVSSLAETVGITRANMSNIVNGKSTPSLETLEKIANALGVDITELFA | -0.432 |
| HMELSAEGWVDGTGVRMRASASTDSEVVRVTEDGESLDITGVSGTWYRVTAGGVSGYIRSDYVSLEEP | -0.0699 |
| HMELSAQEIGRRLRIARENADIRQDDAAQVIGMSRPTLVSIEKGVRRVRIQEIQMLARHYGVSVNALLR | -2.2 |
| HMELSVTDRTRQIRHILKEKGRVEFTSLFEELTKPYVIVTFLSVLEMSKNNELMITQDKTFGSITLEMKG | -0.446 |
| HMELVIGESLAVELLRPGKEDGQALGYLPDGSMVVVNNGRAFVGKRVTAEIIGVIRSAGGKMVFSNLLGE | -3.36 |
| HMEMDITIQMRTLVEELNRASDAYYNGRGELMTDYEWDAKFDQLKQLESQSGVVLPDSPTHRV | -0.244 |
| HMEMELNHVARRAGRLSGFLKGELRLSTGLMNRLKWSNAILVNGKPARTNAQVEPGDRITVILD | -2.35 |
| HMEMLQENIRNLRKAKGWSQEELAIKLNVVRQTVSKWEKGLSVPDSQMLIRIADELDTTVAILLG | -0.705 |
| HMEMLQRFIFLENVSSTQVESAIKELHPNLNLKRVKLSFPGADTVLLKGPKQDLELAEELIRHLDRSE | -0.652 |
| HMEMPGGVMRTLSTIAYNQPVLQSKLVKVRGPRAYEDVHILRDMGLVSARSVGQTVELSTTPKFAEQF | -0.622 |
| HMENEIFVPKVFMDWYNKVDKSIKVFKAFNLIEKETDPRLKEWVEDNQDEFAKIWLGQLLPVV | -0.155 |
| HMENFIPDDPKRIEIGMSVLHQRFGKGKVMQLEGNLPDMKATVNFEGEGQKQLLLKYARLKIV | -0.99 |
| HMENIDVGQDYKVTMNTIQNLMKTGLVTGTQYKELLREMGVHSGMGAITAQQHQIALDFLNKTMDSA | ≥ 1.04 |
| HMENIIKISASYEGLRVDQFLSNYLKISRSKVQKYISEEKIFLNNVPTKTNRKVKLDDIISYNLNF | -3.01 |
| HMENITTILRSIKNEIKKNSTFVGDDFVNQARSMNQGQIKEKSIYGHGTKKEIEELRDEGVDVLNIPWIT | -0.104 |
| HMENKIIKNAAHATLKVKKDAGIEITTELIREAVILFHRIYSPNDNPNINWERIINELESHYT | -3.66 |
| HMENLFPDYTMQDYRIVRSELSSKFKVQTVPVTTATATENKIVRQEPEAGSRITEGMTVILYYSIGPE | -1.51 |
| HMENLRLSELTVERGHRLAGRTLADIASAPNSPKYLIVLIQRGQETVIPTGSTVILPGDVLILAQS | -1.7 |
| HMENMSFGTKLYTWLYGKLVGSDEIGNKYYTNINDPSDLNAKRWVIFNGEIEASKIPPHWHAWLHKSIDK | -0.918 |
| HMENMTLGQRIQALRKQHGLSQEGLGERLGVSRQAISRWEMDGAVPEVDKLIAMARLFGVSLNQLLGVE | -0.193 |
| HMENNIPANIKALIISYVNQNYPGAVIHSIERNSNGTYDVEIYYNNREYDLLFDAQGNFISGNVDDQ | -0.0333 |
| HMENNIRLSVPDTESGQRIDSYLAEQIPGLTRSAVQNLLAEQAVTIAGKAVKKNYKLLGGEDILVQLPEVR | 0.217 |
| HMENPPISVVIPPSFRGQRIDKALGSLIGDYSRSKIQQWLQSGLVQSAGEPLLPKYTVLGNEQILIAVPS | -0.13 |
| HMENQGEDMRQQVKALVNADKTNITKLATATGYSRSTISMYLAGNYKGDVEAVERRLEEYMKTQG | -0.0512 |
| HMENSYSVEDLALKAAISVDTIRYYQGLGLISPPQKNGRRAIYGNDHISRLEEIKKLAFEGFSLRQISLL | 0.111 |
| HMENTIPSVIGRTLSDGVFLLESYGYVKGNVSEEFSEMPIGVIIRQFPGAGSAAEAGTRVDLVVSKGEEIV | 0.124 |
| HMENVALYIRLKSMASVYDDVHGYNIEWIKSMIGLSIDIEKLRTVLEDVSWITKVEEDVYSFSKNAKPFE | -4.31 |

| Sequence | soluble fraction (log2) |
| --- | --- |
| HMENVQLRNFAIKATEAGIIKLSSDQRTFMWASNQKKLMTVPFDEHPYSAMAQFFKTDEGLAVFKSIEKKL | -1.47 |
| HMEPADALVAALVARGVSPSTARITVKQYPATRIQPQLEVFDYLVAQKDPKVSRNPPGFLLSAIRGEYA | -0.718 |
| HMEPAPELTPREQQVLARIALGMTDKAIAEELGVSHQTVRNHVARIYQKIKVHSRSQAVVWAREKGI | -1.47 |
| HMEPDEESVRLKEEILSRIDYWHTTMPYMGTRKLAAKLRTEGYAVGRKLVRTYMREMGIHAVYP | -0.103 |
| HMEPELSVDMKPLDGLLLAIKKELQAAQMYTRLARASADAEQKMVFEQLANMEKGHKARLEDIYT | -0.079 |
| HMEPESTMIEISETLTNERLDRYLATKLPNVSRGGIQRLLREGNILVNGKKAKPTQHPVAGQKIEITWPNP | -0.0291 |
| HMEPEYIGELEKRIKKLKTHTYSSIDRLMKSISKKYKITTQVLHDDFKNKHNEIPDEWVKQF | -0.126 |
| HMEPKIKQIVPNVVNYPVEDAKNVLVNSGLIVQIRGQGNIVYDQVPKGGAEVTRGTTVILDLNPPPGA | -0.0576 |
| HMEPKQIEVPNLVGISSAAARQTLSALGLHAVVKDSIWSETERIDTVLEQNPAGGALIKPEGTVYLRVSR | -0.0959 |
| HMEPLIRTLEEQIAEKIKNYRKGTRVYDAEHVDRWISQLPEEERMVVLTETNRLLEQNYVDQAKLME | -0.0452 |
| HMEPMLEIFDAKIDLADVLAVESGLVRLRGGAEVTSPRVDVDAGARLELDSGARLNVERLSY | 0.155 |
| HMEPMTDQQILEGFAEFKRQNPDLMNRPATQAIVNLTLPGGTPISFRSGAGAAALNQYLESIGMRAGP | 0.0601 |
| HMEPPAPAPDIPYPSRVTVRREVDGWPHYYGTWTRTPPVLGYEGIWLVGVSLDGKVQFVPVDDVTIA | -1.17 |
| HMEPREEFTFADLRANGLNGTAAAAGRRAALGAALGIGYGNAKQFLRRLNHYGVTRSEWEAALADLDE | -0.752 |
| HMEPSERYKALQSLLPDYAKRLKKKGVTRHQLFLEYRLTHPDGYARSRFGTYFQAYLALSHP | -2.32 |
| HMEPTLVVARDKDAKSPLVAKLMKELGVDAAPRVIVDDSVIGGAKLSHNHTEIDATYKTALINLYQAIT | 0.19 |
| HMEPVFSDPARQTLYQEVMELPAKYRVPLYLYYYEGYKVDEVGELLGLNASTVQTRLARARAKLKIQL | -0.489 |
| HMEQETVTVPDLVGKDVVAAQAELHEMGLSGKPDGTGTTVVSQFPVAGARVLKHTNVILYTED | 0.296 |
| HMEQFRENIVRIYMEIDDYENGAKFLEMGNNRDASFYELAGDFYKYFGENELANENYDLAISA | -0.629 |
| HMEQIPEEYKKIYSLITDIPININDIAKKSLLELREVSSKLTMLELDGKVVKLPGNMYIRGDL | -0.195 |
| HMEQKELAPLVPQEDGSVKLTNLAGYSMREVAAALEGGNLSLIPIGSGTSWKQDPAPGTVLQPGNTVTVYF | -0.297 |
| HMEQPLSLKLANNAFSRFWGNANPAEKDTQPNNSDIAKWVIEQSGGKITQTMADKIAQIIRPEWAA | 0.372 |
| HMEQSGDELKTWVDQAIAAYPEKVKEYQQGKKGLLALFIGEVMKRSKGTADPKKVNQLVTEALS | -0.164 |
| HMEQTMNDMLKLVDLLPQNQQDIVRMRFYENMSFKEIAESNQISINTALGRMRYAILNLRKYAAERNL | -2.59 |
| HMEQVLDEEIIKSAVQKVIKDNPSAVSDYKAGKKTAFQFLIGKAMAELQGKGHPGKISELLEKE | 0.474 |
| HMEQVQQIPIEELFPFKEHPFKVLDDEAMQRTVESVAQYGVLAPLIARPRPEGGYEIISGHRRQHAAELYR | -0.0469 |
| HMEQWVSIEVEPGIRLDVALTEATQKSRSFIQNLIAEQRVLVNGQPKKANYKVRPGDHVELNYPEPT | -0.29 |
